From US20130096282A1 (LOSTAM BIOPHARMACEUTICALS, published 2013)

Experiments:
[1] = biological target: T1, recombinantly-expressed P. aeruginosa flagellin type A (Pseudomonas aeruginosa, UniProt P21184 2-394); assay: ELISA, plates coated with recombinant flagellin type A (250 ng/well), anti-human Fc-HRP
T1 construct: also called PA flagellin type A; PA flagellin A
T1 sequence: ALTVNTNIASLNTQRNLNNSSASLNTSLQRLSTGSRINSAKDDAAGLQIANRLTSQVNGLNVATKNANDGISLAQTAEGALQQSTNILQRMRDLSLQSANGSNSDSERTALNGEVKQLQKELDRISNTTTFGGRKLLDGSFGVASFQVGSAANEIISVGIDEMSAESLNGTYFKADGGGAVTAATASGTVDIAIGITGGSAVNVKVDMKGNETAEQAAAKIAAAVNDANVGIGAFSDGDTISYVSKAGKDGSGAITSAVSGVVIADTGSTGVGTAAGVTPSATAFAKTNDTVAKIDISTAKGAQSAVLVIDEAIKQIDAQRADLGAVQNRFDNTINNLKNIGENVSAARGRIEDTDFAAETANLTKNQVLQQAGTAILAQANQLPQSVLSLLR

[2] = biological target: T1, recombinantly-expressed P. aeruginosa …; assay: ELISA on plates coated with purified flagellin type A
[3] = biological target: T1, recombinantly-expressed P. aeruginosa …; assay: SPR (ProteOn XPR36), mAb amine-coupled to GLM chip, flagellin as analyte 5-80 nM, 1:1 model
[4] = biological target: T2, flagellin type B of P. aeruginosa laboratory strain PA01 (Pseudomonas aeruginosa, UniProt P72151 1-488); assay: immunoblot of P. aeruginosa lysates probed with LST-003, anti-human Fc peroxidase detection
T2 construct: whole, on cells; Tested on whole immobilized or formaldehyde-fixed bacteria (ELISA), in blotted lysate (western blot) and on live bacteria (motility)
T2 sequence: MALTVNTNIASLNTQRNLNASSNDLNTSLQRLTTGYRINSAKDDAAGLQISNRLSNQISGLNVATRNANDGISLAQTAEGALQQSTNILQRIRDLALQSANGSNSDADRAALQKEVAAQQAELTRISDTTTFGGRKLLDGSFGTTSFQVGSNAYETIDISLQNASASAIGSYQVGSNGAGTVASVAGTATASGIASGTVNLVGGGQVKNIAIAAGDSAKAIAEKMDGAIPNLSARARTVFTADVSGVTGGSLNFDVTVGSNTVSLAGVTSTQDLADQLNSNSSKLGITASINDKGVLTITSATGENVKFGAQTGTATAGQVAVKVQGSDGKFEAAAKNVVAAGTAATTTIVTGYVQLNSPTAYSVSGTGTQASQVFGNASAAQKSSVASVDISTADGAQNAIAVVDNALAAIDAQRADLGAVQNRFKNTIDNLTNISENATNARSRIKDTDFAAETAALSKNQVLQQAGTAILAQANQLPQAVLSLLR

[5] = biological target: T3, recombinantly-expressed P. aeruginosa flagellin type B (Pseudomonas aeruginosa, UniProt P72151 1-488); assay: SPR (ProteOn XPR36), mAb amine-coupled to GLM chip, flagellin as analyte 5-80 nM, 1:1 model
T3 construct: also called PA flagellin type B; PA flagellin B
T3 sequence: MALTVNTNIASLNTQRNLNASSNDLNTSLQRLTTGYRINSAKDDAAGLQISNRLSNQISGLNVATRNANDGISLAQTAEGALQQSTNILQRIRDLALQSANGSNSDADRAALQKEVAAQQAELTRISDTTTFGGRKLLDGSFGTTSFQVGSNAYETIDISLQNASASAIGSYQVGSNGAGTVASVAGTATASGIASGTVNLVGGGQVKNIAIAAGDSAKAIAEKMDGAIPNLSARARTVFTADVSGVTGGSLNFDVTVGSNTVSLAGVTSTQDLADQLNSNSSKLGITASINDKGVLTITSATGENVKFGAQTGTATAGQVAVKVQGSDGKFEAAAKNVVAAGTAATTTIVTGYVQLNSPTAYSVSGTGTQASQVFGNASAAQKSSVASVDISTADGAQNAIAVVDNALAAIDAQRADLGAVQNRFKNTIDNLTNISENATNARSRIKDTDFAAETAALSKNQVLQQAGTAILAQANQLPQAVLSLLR

[6] = biological target: T3, recombinantly-expressed P. aeruginosa …; assay: ELISA on plates coated with purified flagellin type B
[7] = biological target: T3, recombinantly-expressed P. aeruginosa …; assay: ELISA, plates coated with recombinant flagellin type B (250 ng/well), anti-human Fc-HRP
[8] = biological target: T2, flagellin type B of P. aeruginosa …; assay: immunoblot of P. aeruginosa lysates probed with LST-001, anti-mouse Fc peroxidase detection
[9] = biological target: T4, flagellin type A of P. aeruginosa laboratory strain PAK (Pseudomonas aeruginosa, UniProt P21184 2-394); assay: ELISA on whole immobilized bacteria, single point
T4 construct: whole, on cells; Tested on whole immobilized or formaldehyde-fixed bacteria (ELISA) and in blotted bacterial lysate (western blot)
T4 sequence: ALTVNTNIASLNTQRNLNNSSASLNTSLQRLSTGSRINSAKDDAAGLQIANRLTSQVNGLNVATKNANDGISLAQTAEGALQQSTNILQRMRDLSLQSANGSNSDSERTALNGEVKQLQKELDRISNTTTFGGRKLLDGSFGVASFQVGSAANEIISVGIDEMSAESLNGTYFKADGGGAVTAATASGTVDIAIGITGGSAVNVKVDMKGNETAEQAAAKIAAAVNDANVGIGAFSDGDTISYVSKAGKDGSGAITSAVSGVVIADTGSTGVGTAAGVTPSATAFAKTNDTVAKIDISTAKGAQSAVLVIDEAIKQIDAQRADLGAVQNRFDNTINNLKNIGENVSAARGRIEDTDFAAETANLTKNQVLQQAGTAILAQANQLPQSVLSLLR

[10] = biological target: T3, recombinantly-expressed P. aeruginosa …; assay: ELISA, plates coated with recombinant flagellin type B at 5 µg/ml, anti-human Fc-HRP

B1: chimeric mAb LST-003 (antibody, V domains shown)
VH: DVQLQESGPGLVKPSQSLSLPCSVTGYSITSGYYWNWIRQFPGNKLEWMGYIRYDGNNNYNPSLKNRISITHDTSKNQFFLKLNYVTTEDTATYYCARGLQFYFDSWGQGTTLTVSS
VL: DIVMSQSPSSLAVSGGEKVTMSCKSSQSLLNGSYQKHTLAWYQQKPGQSPKLLIYWASTRESGVPDRFTGSGSGTDFTLTISSVKAEDLAVYYCQQYYSYPWTFGGGTKLEIKR
notes: also called chimeric LST-003; chimeric anti-flagella type A antibody
EC50 [1]: ~0.065 µg/mL
EC50 (read off the curve) [2]: ~0.7 nM
Kd [3]: 3 nM
binding result [4]: no binding (tested: 10 µg/ml)

B2: dual-specific chimeric mAb LST-010 (bispecific antibody)
heavy: not shown
light: DIVMSQSPSSLAVSGGEKVTMSCKSSQSLLNGSYQKHTLAWYQQKPGQSPKLLIYWASTRESGVPDRFTGSGSGTDFTLTISSVKAEDLAVYYCQQYYSYPWTFGGGTKLEIKR
notes: also called dual-specific LST-010 mAb; not shown: human light constant domain (CL)
EC50 (read off the curve) [2]: ~0.9 nM

B3: chimeric mAb LST-004 (antibody, V domains shown)
VH: EVMLVESGGGLVKPGGSLKLSCAASGFTFSTFTMSWVRQTPEKRLECVATINGGGGNTYYPDSVKGRFTISRDNAKNNLYLQMSSLRSEDTAFYFCSRLYGIYAMDYWGQGTSVTVSS
VL: DIVMTQSHIFMSTSVGDRVSITCKASQDVGSAVAWYQQKPGQSPKVLIYWTSTRHTGVPDRFAGSGSGTEFTLTISNVQSEDLADYFCQQYSSYPLTFGAGTKLELKR
notes: also called chimeric LST-004
Kd [5]: 1.3 nM
EC50 (read off the curve) [6]: ~1 nM
EC50 [7]: ~0.3 µg/mL

B4: mouse monoclonal antibody LST-001 (antibody, V domains shown)
VH: DVQLQESGPGLVKPSQSLSLPCSVTGYSITSGYYWNWIRQFPGNKLEWMGYIRYDGNNNYNPSLKNRISITHDTSKNQFFLKLNYVTTEDTATYYCARGLQFYFDSWGQGTTLTVSS
VL: DIVMSQSPSSLAVSGGEKVTMSCKSSQSLLNGSYQKHTLAWYQQKPGQSPKLLIYWASTRESGVPDRFTGSGSGTDFTLTISSVKAEDLAVYYCQQYYSYPWTFGGGTKLEIKR
notes: Mouse monoclonal antibody; also called mouse LST-001; FA6 IIG5 (ATCC HB9130)
Kd [3]: 0.6 nM
binding result [8]: no binding (tested: 10 µg/ml)

B5: mouse monoclonal antibody LST-002 (antibody, V domains shown)
VH: EVMLVESGGGLVKPGGSLKLSCAASGFTFSTFTMSWVRQTPEKRLECVATINGGGGNTYYPDSVKGRFTISRDNAKNNLYLQMSSLRSEDTAFYFCSRLYGIYAMDYWGQGTSVTVSS
VL: DIVMTQSHIFMSTSVGDRVSITCKASQDVGSAVAWYQQKPGQSPKVLIYWTSTRHTGVPDRFAGSGSGTEFTLTISNVQSEDLADYFCQQYSSYPLTFGAGTKLELKR
notes: Mouse monoclonal antibody; also called mouse LST-002; PaF4 IVE5 (ATCC HB9129)
binding result [9]: no binding (tested: 1:2 dilution, concentration not given)
Kd [5]: 0.82 nM

B6: human monoclonal IgM antibody LST-007 (antibody, V domains shown)
VH: QVRLVQSGTEVKKPGASVRVSCKASGYTFSNYYMYWVRQAPGQGLEWMAMINPSGGSTRYAQKFQGRVTMTRDTSTSTVYMELSSLRSEDTAVYYCARADSGSYFGYWGQGTLVTVSS
VL: DIQLTQSPSFLSASVGDRVPITCRASQGISTHLAWYQQKPGKAPKLLIYAASTLQSGVPSRFSGSGSGTEFTLTISSLQPEDSATYYCQQLKSYPLTFGGGTKVEIKR
notes: Human IgM from an EBV-transformed lymphoblastoid cell line, tested as culture supernatant; also called 20H11 (ATCC CRL9300); human monoclonal IgM anti-flagella type B antibody
binding result [9]: no binding

B7: fully human recombinant mAb LST-008 (antibody, V domains shown)
VH: QVRLVQSGTEVKKPGASVRVSCKASGYTFSNYYMYWVRQAPGQGLEWMAMINPSGGSTRYAQKFQGRVTMTRDTSTSTVYMELSSLRSEDTAVYYCARADSGSYFGYWGQGTLVTVSS
VL: DIQLTQSPSFLSASVGDRVPITCRASQGISTHLAWYQQKPGKAPKLLIYAASTLQSGVPSRFSGSGSGTEFTLTISSLQPEDSATYYCQQLKSYPLTFGGGTKVEIKR
notes: Human IgG1 made in CHO-S cells; also called recombinant human LST-008
Kd [5]: 0.94 nM
EC50 [10]: ~0.01 µg/mL
